# T1: hCXCR5 (human, UniProt P32302 1-372)
# T1 construct: whole, on cells
# T1 sequence (looked up): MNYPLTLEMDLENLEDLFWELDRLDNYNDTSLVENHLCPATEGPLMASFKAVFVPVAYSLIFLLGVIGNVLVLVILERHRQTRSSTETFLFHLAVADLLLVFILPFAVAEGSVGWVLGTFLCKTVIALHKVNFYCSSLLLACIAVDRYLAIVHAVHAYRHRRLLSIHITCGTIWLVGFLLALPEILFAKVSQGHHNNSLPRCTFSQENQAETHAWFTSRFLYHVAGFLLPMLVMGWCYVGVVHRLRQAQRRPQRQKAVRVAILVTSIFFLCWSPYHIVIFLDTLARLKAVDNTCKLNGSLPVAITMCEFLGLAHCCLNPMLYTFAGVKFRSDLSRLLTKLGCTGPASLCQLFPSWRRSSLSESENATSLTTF
# T2: hCCR7 (human, UniProt P32248 25-378)
# T2 construct: whole, on cells
# T2 sequence (looked up): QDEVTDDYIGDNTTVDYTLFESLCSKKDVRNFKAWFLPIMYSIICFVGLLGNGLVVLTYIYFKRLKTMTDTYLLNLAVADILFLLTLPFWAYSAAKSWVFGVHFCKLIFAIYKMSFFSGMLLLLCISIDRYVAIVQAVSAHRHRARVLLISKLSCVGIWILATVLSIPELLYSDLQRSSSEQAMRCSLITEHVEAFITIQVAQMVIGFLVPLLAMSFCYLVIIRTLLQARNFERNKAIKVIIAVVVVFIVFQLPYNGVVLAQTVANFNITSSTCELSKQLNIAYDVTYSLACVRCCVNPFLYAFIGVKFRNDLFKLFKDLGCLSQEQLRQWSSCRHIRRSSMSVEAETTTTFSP
# T3: hCCR4 (human, UniProt P51679 1-360)
# T3 construct: whole, on cells
# T3 sequence (looked up): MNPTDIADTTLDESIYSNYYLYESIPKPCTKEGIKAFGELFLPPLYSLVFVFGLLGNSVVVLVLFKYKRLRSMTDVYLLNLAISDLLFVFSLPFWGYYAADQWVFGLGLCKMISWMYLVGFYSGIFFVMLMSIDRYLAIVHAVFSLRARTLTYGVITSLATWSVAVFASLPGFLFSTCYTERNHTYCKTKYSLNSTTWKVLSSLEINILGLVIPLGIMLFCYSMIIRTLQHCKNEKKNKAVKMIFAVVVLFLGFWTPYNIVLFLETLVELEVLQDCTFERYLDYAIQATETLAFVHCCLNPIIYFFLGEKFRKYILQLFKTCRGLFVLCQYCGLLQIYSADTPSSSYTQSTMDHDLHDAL
# T4: hCCR3 (human, UniProt P51677 1-355)
# T4 construct: whole, on cells
# T4 sequence (looked up): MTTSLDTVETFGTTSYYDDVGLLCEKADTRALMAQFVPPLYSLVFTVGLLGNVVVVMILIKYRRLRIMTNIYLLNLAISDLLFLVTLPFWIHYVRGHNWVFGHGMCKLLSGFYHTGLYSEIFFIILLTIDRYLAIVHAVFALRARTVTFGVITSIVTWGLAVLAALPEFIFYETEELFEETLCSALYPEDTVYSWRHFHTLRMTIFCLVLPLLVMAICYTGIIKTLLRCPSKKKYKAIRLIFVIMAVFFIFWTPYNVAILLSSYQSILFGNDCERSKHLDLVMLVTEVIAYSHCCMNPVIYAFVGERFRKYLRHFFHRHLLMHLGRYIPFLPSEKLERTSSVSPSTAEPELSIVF
# Key:
# hCXCR5 = target: T1, hCXCR5; test: flow cytometry, IgG 100 nM, cells over-expressing hCXCR5
# Protocol: (§1) Cells over-expressing different GPCRs other than CXCR4 and several lines transfected to over-express CXCR4 (R1610-hCXCR4, Cf2Th-hCXCR4 and CHO-hCXCR4) were compared. Cultures were incubated with a test IgG at 100 nM in FACS buffer for 40 min at 4° C. Thereafter, cells were washed twice, stained with anti-human-Fc antibody-PE conjugate (Jackson Immunoresearch Laboratories Inc., West Grove, Pa.), washed twice in FACS buffer and then transferred to FIX buffer. Fluorescence intensities were measured by GUAVA PCA-96 at 425V (in triplicate).
# (§2) The expression of GPCRs other than CXCR4 was confirmed using commercially available antibodies (positive controls). For example, a commercial anti-CXCR1 antibody was used as a positive control for confirming the expression of CXCR1 on the CXCR1-transfected CHO cells.
# hCCR7 = target: T2, hCCR7; test: flow cytometry, IgG 100 nM, cells over-expressing hCCR7
# Protocol: as §1, §2
# human CXCR4 = target: T5, human CXCR4 (human, UniProt P61073 1-352); test: flow cytometry on Cf2-Th cells transfected with human CXCR4, IgG1 format
# T5 construct: whole, on cells; also called hCXCR4; LESTR
# T5 sequence (P61073 whole entry): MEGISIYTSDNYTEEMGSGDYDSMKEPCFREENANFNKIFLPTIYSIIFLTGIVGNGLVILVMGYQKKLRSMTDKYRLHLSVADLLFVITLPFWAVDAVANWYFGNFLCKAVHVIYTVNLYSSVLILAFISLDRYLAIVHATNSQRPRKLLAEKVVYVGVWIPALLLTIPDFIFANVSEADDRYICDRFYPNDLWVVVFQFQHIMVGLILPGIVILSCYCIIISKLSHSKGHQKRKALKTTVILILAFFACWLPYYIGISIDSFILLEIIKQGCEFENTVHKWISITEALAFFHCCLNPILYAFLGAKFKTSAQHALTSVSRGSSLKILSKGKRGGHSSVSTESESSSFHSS
# Protocol: A typical protocol for the fluorescent flow cytometry-based assay was as follows. Ten microliter of a purified test IgG solution or buffer as a control were added to 10 microliter of a suspension containing approximately 30,000 Cf2-Th cells transfected to express human CXCR4. After incubation on ice for 40 min, cells were washed with FACS buffer (phosphate-buffered saline (PBS), pH7.4; 2% fetal calf serum, 0.1% sodium azide) to remove unbound antibodies. Ten microliter of a solution of phycoerythrin (PE)-conjugated mouse anti-human Fc monoclonal antibody (1/20 dilution; catalog number 12-4998-82, eBioscience Inc., San Diego, Calif.) were then added to the cells, and, after a 30-min incubation on ice, cells were washed twice and then formalin-fixed (FIX buffer: PBS, pH7.4; 0.5% formaldehyde). Fixed samples were analysed by fluorescent flow cytometry using a Guava-PCA96 instrument (EMD Millipore Chemicals, Merck KGaA, Darmstadt, Germany).
# hCCR4 = target: T3, hCCR4; test: flow cytometry, IgG 100 nM, cells over-expressing hCCR4
# Protocol: as §1, §2
# hCCR3 = target: T4, hCCR3; test: flow cytometry, IgG 100 nM, cells over-expressing hCCR3
# Protocol: as §1, §2
# hCXCR7 = target: T6, hCXCR7 (human, UniProt P25106 1-362); test: flow cytometry, IgG 100 nM, cells over-expressing hCXCR7
# T6 construct: whole, on cells
# T6 sequence (P25106 whole entry): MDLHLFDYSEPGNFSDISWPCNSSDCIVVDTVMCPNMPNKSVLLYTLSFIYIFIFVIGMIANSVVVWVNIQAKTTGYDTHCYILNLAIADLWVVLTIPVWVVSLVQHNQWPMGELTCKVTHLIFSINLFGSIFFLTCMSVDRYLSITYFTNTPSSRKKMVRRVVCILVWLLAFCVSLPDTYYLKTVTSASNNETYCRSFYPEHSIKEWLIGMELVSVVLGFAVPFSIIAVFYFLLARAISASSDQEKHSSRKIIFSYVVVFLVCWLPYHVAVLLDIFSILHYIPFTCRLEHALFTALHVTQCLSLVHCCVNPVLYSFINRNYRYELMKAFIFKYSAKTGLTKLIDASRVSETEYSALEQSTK
# Protocol: as §1, §2
MFI (hCXCR5),MFI (hCCR7),EC50 (human CXCR4) [nM],MFI (hCCR4),MFI (hCCR3),MFI (hCXCR7),Binder
3,4,< 10,3,4,4,"V62.1-R108H (antibody, human IgG1, V domains shown, Tested as an IgG (human IgG1 format); also called IgG1 V62.1 R108H) VH: not shown VL: EIVLTQSPGTLSLSPGERATLSCRASQSVSSSYLAWYQQKPGQAPRLLIYGASSRATGIPDRFSGSGSGTDFTLTISRLEPEDFAVYYCQQSDYSYPFTFGQGTKVEIKR"
4,3,< 10,3,4,3,"V62.1 (antibody, human IgG1, V domains shown, Tested as an IgG (human IgG1 format; DP47 heavy and DPK22 kappa light frameworks) made in CHO-3E7 cells; also called IgG V62.1) VH: not shown VL: EIVLTQSPGTLSLSPGERATLSCRASQSVSSSYLAWYQQKPGQAPRLLIYGASSRATGIPDRFSGSGSGTDFTLTISRLEPEDFAVYYCQQSDYSYPFTFGQGTKVEIKR"
2,,< 10,2,2,2,"V62.1-R108H-m80 (antibody, human IgG1, V domains shown, Tested as an IgG (human IgG1 format); also called V62.1-H-m80; V62.1-R108H-m80-Wt) VH: EVQLLESGGGLVQPGGSLRLSCAASGFTISPYSITWVRQAPGKGLEWVSQINSYNGKTYYADSVKGRFTISRDNSKNTLYLQMNSLRAEDTAVYYCARQGKTRVYGYHWHGYGSTHALDYWGQGTLVTVSS VL: EIVLTQSPGTLSLSPGERATLSCRASQSVSSSYLAWYQQKPGQAPRLLIYGASSRATGIPDRFSGSGSGTDFTLTISRLEPEDFAVYYCQQSDYSYPFTFGQGTKVEIKR"
2,2,< 10,2,,2,"V62.1-R108H-m47-m38 (antibody, human IgG1, V domains shown, Tested as an IgG (human IgG1 format); also called V62.1-H-m47-m38; IgG1 62.1-R108H-m47-m38) VH: EVQLLESGGGLVQPGGSLRLSCAASGFTFSSYAMSWVRQAPGKGLEWVSAISGSGGTRYADSVKGRFTISRDNSKNTLYLQMNSLRAEDTAVYYCARQGKTRVYGYHWHGYGSTHALDYWGQGTLVTVSS VL: EIVLTQSPGTLSLSPGERATLSCRASQSVSSSYLAWYQQKPGQAPRLLIYGASSRATGIPDRFSGSGSGTDFTLTISRLEPEDFAVYYCQQWSSDSVTFGQGTKVEIKR"
